Test results: patent US7419669B2, “Peptide epitopes common to antigens of the same multigene family” (Institut Gustave Roussy, priority 2002, dated 2008)
Where no end group is shown, it is not given here.

Columns and labels:
HLA-A*0201 = biological target: T1, HLA-A*0201 (Homo sapiens, UniProt P04439, D140Y/D185E/D98H/E176V/E277Q/G131W/G231S/I119V/I121R/I166T/I218V/L300P/L318F/N151K/N90K/P208A/P217A/Q86G/Q94H/R138H/R169H/T345S); test: Relative affinity (RA) of peptides for HLA-A*0201 on T2 cells, flow cytometry with BB7.2; assay type: binding; details: low affinity = RA>5 and DC50<2 hours
T1 construct: prevent the expression at their surface of newly synthesized HLA-A*0201 molecules; endogenous in cells; host or cells: human T2 cells (TAP-deficient)
Experimental: (§1) The affinity of the selected peptides for HLA-A*0201 was defined by two parameters: the relative affinity (RA); which reflects the ability of the peptides to bind to HLA-A*0201, and the rate of dissociation of the HLA-A*0201/peptide complexes (DC50), which reflects their stability. The peptides with high affinity (RA<5 and DC50>2 hours) are potentially immunogenic, unlike the peptides with low affinity (RA>5 and DC50<2 hours).
Human T2 cells (FIRAT et al., Eur. J. Immunol., 29, 3112, 1999) (3×10^5 cells/ml), which are deficient in TAP transporters, are incubated at 37° C. for 16 hours with various concentrations (100 μM, 10 μM, 1 μM, 0.1 μM) of each test peptide in serum-free RPMI 1640 medium supplemented with 100 ng/ml of human β2-microglobulin. Next, they are washed twice and labeled with the monoclonal antibody BB7.2 (PARHAM et al., Hum. Immunol., 3, 4, 277-299, 1981) which is specific for the HLA-A*0201 molecule, and then with a goat anti-mouse Ig antibody coupled to fluorescein isothiocyanate (FITC).
The cells are then analyzed by flow cytometry. For each concentration of peptide, the specific HLA-A*0201 fluorescence is calculated as a percentage of the fluorescence obtained with 100 μM of a reference peptide (HIVpol 589; […] (SEQ ID No: 1)). The relative affinity (RA) is defined as the ratio of the concentration of each peptide that induces 20% of the fluorescence obtained with 100 μM of the reference peptide, to the concentration of the reference peptide that induces 20% of the fluorescence obtained with 100 μM of said reference peptide. The lower the relative affinity, the stronger the binding of the peptide to HLA-A*0201. The mean RA for each peptide is determined from at least three independent experiments. In all the experiments, 20% of the maximum fluorescence was obtained for 1 to 3 μM of the reference peptide.
The relative affinity (RA) of the selected variant peptides for HLA-A*0201 was measured as described in example 1.

[1] = biological target: T2, HLA-A*0201/peptide complexes (Homo sapiens, UniProt P04439, D140Y/D185E/D98H/E176V/E277Q/G131W/G231S/I119V/I121R/I166T/I218V/L300P/L318F/N151K/N90K/P208A/P217A/Q86G/Q94H/R138H/R169H/T345S); test: Stability of peptide/HLA-A*0201 complexes on T2 cells (DC50); assay type: binding
T2 construct: prevent the expression at their surface of newly synthesized HLA-A*0201 molecules; endogenous in cells; host or cells: human T2 cells (TAP-deficient)
Experimental: as §1
T2 cells (10^6/ml) are incubated overnight at 37° C. with 100 μM of each test peptide in serum-free RPMI 1640 medium supplemented with 100 ng/ml of human β2-microglobulin. Next, they are washed four times in order to remove the free peptides, incubated with Brefeldin A (SIGMA; 10 μg/ml) for one hour in order to prevent the expression at their surface of newly synthesized HLA-A*0201 molecules, washed and incubated at 37° C. for 0, 2, 4, 6 or 8 hours. For each incubation time, the cells are then labeled, as indicated above, with the BB7.2 antibody, and analyzed by flow cytometry in order to evaluate the amount of peptide/HLA-A*0201 complex present at their surface. This amount is evaluated by means of the formula: (mean fluorescence of the T2 cells preincubated with the peptide−mean fluorescence of the T2 cells treated under similar conditions in the absence of peptide). […]

HHD transgenic mice = test: Induction of specific CTLs in HHD transgenic mice by immunization with variant MAGE-A peptides; 51Cr cytotoxicity on peptide-loaded RMAS-HHD targets; assay type: in vivo
Experimental: The immunogenicity of the variant peptides p174Y1V10, p262L2 and p248V9 was evaluated by generation of CTLs on HHD transgenic mice (PASCOLO et al., J. Exp. Med., 185, 2043, 1997). These mice are β2m−/−, D^b−/− and express an HLA-A*0201 single chain made up of the α1 and α2 domains of HLA-A*0201 and the α3 and intracellular domains of D^b, linked via its N-terminal to the C-terminal of human β2-microglobulin, via a peptide of 15 amino acids.
The HHD mice are given a subcutaneous injection at the base of the tail with 100 μg of each variant peptide to be tested, emulsified in Freund's incomplete adjuvant, in the presence of 140 μg of a T-helper epitope derived from the HBV “core” antigen (128-140, sequence […]).
After 11 days, spleen cells taken from the mice (5×10^7 cells in 10 ml) are stimulated in vitro with the test peptide (10 μM). On the 6th day of culture, the populations which respond are tested in order to determine a specific cytotoxicity. The cells which respond are restimulated in vitro at one-week intervals with 2×10^7 irradiated (3000 rads) HHD spleen cells and 1 to 0.1 μM of peptide in the presence of 50 IU/ml of recombinant IL2 (Proleukin, Chiron Corp).
Cytotoxicity assays are carried out 6 days after the final stimulation.
RMAS-HHD cells are used as targets to study the cytotoxicity. The cells are obtained by transfection of murine RMAS cells with the HHD construct as described by PASCOLO et al. (J. Exp. Med., 185, 2043, 1997).
These target cells are labeled with 100 μCi of ^51Cr for 90 minutes, and then washed three times and plated out in round-bottomed 96-well plates (3×10^3 cells/well in 100 μl of RPMI 1640+3% of fetal calf serum). They are loaded with various concentrations of test peptide (variant, native peptide, or irrelevant control peptide), at 37° C. for 90 minutes.
Next, 100 μl of the effector cells (effector cell/target cell ratio=40/1) are added to the wells and the plates are incubated at 37° C. for 4 hours. After incubation, 100 μl of supernatant are collected and the radioactivity is measured in a γ-counter.
The percentage of specific lysis is calculated by means of the formula: [(experimental ^51Cr release−spontaneous ^51Cr release)/(maximum ^51Cr release−spontaneous ^51Cr release)]×100. In all the experiments, the spontaneous release is less than 20% of the maximum release induced with 3N HCl.

Row | stability of the complex formed with HLA-A*0201 (in words) [1] | Sequence | affinity for HLA-A*0201 (in words) (HLA-A*0201) | DC50 (time required for loss of 50% of HLA-A*0201/peptide complexes) ([1]; T2 cells loaded with 100 μM peptide, 37° C., 0-8 hours) [h] | recognition of RMAS-HHD targets loaded with the native peptide by CTLs induced with the corresponding variant (HHD transgenic mice; native peptide loaded on targets) | CTL response generated by immunization with the variant peptide (HHD transgenic mice; HHD mice, 100 μg s.c. in Freund's incomplete adjuvant, RMAS-HHD targets, effector/target 40/1)
1 |  | YEFLWGPRA (listed as Homo sapiens) [p262] | low affinity | <2 | not | 
2 | appears to be insufficient | YLGLSYDGLV (not fully specified) [p174Y1V10] |  |  |  | not capable of generating a CTL response
